Data taken from paper PMC4770092, “Subnanometre enzyme mechanics probed by single-molecule force spectroscopy” (Nature Communications, 2016).

What was measured:
Test in all cases: coupled spectrophotometric assay
Format in all cases: biochemical, Aquifex aeolicus
[1] = substrate: Nc1ncnc2c1ncn2[C@@H]1O[C@H](COP(=O)(O)OP(=O)(O)O)[C@@H](O)[C@H]1O; settings: Mg-ADP/ADP
[2] = substrate: Nc1ncnc2c1ncn2[C@@H]1O[C@H](COP(=O)(O)OP(=O)(O)OP(=O)(O)O)[C@@H](O)[C@H]1O
[3] = substrate: Nc1ncnc2c1ncn2[C@@H]1O[C@H](COP(=O)(O)O)[C@@H](O)[C@H]1O

B1: AdK 42-144 (Aquifex aeolicus VF5; INS144C/INS42C) (protein)
chain: MILVFLGPPGAGKGTQAKRLAKEKGFVHISTGDILREAVQKGCTPLGKKAKEYMERGELVPDDLIIALIEEVFPKHGNVIFDGFPRTVKQAEALDEMLEKKGLKVDHVLLFEVPDEVVIERLSGRRINPETGEVYHVKYNPPPPGCVKVIQREDDKPEVIKKRLEVYREQTAPLIEYYKKKGILRIIDASKPVEEVYRQVLEVIGDGN
notes: full length, Cys inserted between 42/43 and 144/145; N-terminal spacer …, C-terminal spacer and His6 kept; synthetic gene in pET11a, E. coli BL21(DE3); DNA handles on Cys in trap assay
Q: What does the source list for B1?
A: Km [1]: 360 ± 80 µM; Km [2]: 41 ± 11 µM; Km [3]: 10 µM
